Source: the supplement of paper PMC12764529
± gives the half width of the 95% confidence interval.

Key:
[1] = folding stability dG unfold from chymotrypsin proteolysis; higher = more stable
Summary of the method: (§1)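 Only designs with AlphaFold2 dimer inter-PAE above 15 were retained; each was a mini-protein under 80 residues with no cysteine, in a PA-tagged cDNA display construct. After digestion with trypsin and chymotrypsin and sequencing, K50 was inferred by Bayesian fitting of counts, and unfolding free energy was derived per protease or combined against a sequence-predicted unfolded-state K50 and a shared folded-state K50.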

[2] = folding stability dG unfold from trypsin proteolysis; higher = more stable
Summary of the method: as §1

[3] = folding stability dG unfold (combined trypsin and chymotrypsin); higher = more stable
Summary of the method: as §1

Sequence | folding stability dG unfold [1] [kcal/mol] | folding stability dG unfold [2] [kcal/mol] | folding stability dG unfold [3] [kcal/mol]
SSSPSGLSVTSSTVTKVETDPGPGNVTTVTVTTLNNSVLIIPLPGKPLVIPTNTTVETTYTVPPDDPSPASA [r9_531_JUSTAS] | 0.87 ± 0.11 | 1.31 ± 0.073 | 1.15 ± 0.074
SAGGSAGGSAGGNVITVFIPNYQIITIHLSPEPGRIPIEVYPPNGKKEEWPIPDIKELIQSAGGSAGGSAGG [r7_769_TrROS] | -0.306 ± 0.14 | 1.6 ± 0.13 | 1.01 ± 0.13
SAGGSAGGSAGAEIKIKKVEKKDSKLKLILPDGRIYEVKKDKKKSNSIKKIKIKKLPPLKSAGGSAGGSAGG [r17_173_JUSTAS] | -0.181 ± 0.59 | 0.113 ± 0.34 | -0.0549 ± 0.47
SAGGSAGGSAGDGMIEVKVEFERLFFDENGNVTKKEKVDEIIKVPPVTIDTSTGKLTPLPSAGGSAGGSAGG [r17_413_JUSTAS] | 0.229 ± 0.021 | 0.261 ± 0.051 | 0.284 ± 0.073
SAGGEELARRLAEELRELGLEVEVVDVDLEEGKITIRVRPAPPPPPVTERRTRRRPDGREVTEERVLSAGGS [r8_318_TrROS_Hall] | 0.0369 ± 0.15 | 0.282 ± 0.21 | 0.214 ± 0.16
SAGGSAGGSAGGMRLVRITTEDGRTITAPVGETITITRPDGSKVKITRVEVFELPPEDLSAGGSAGGSAGGS [r10_20_TrROS_Hall] | 1.51 ± 0.025 | 0.744 ± 0.021 | 1.23 ± 0.041
SAGGSAGPMSVKEYEFEAVVPPGEEEAWVEEYIKKEFKSKIVKIEVKREKLPDGTYRVPVKITVKESAGGSA [r15_138_JUSTAS] | 0.998 ± 0.12 | 0.433 ± 0.029 | 0.775 ± 0.079
SASNRVTVSSETVREGDKKLLKLTVTITDSSTGRTSTETLTTEDPEKAREELAARPDVSTLTFETLTPGSAG [r14_464_JUSTAS] | -0.196 ± 0.2 | 0.303 ± 0.12 | 0.1 ± 0.19
SAGGPLTLEFTLPNGDEVGDVTVEPLPDDSYIVTVVAEDKDRPGVYYVSLVRIPPTDRTLEVVSGPVYSAGG [r13_370_TrMRF] | 1.24 ± 0.12 | 1.12 ± 0.02 | 1.2 ± 0.064
SAGGSASSMTTTKKLSTGEKSVVELSTSPSTVTLVTTDPETGTVTVTTYTPSGTGPVATTTTVPAPSAGGSA [r15_137_JUSTAS] | 0.499 ± 0.14 | -0.431 ± 0.13 | 0.177 ± 0.097
SAGGMTKTILIYDEETGVLVRIEIKVNPETGEIEEIKIETETLEDGTVKMKITLKDGTEIEVEIKPLPSAGG [r13_515_TrROS_Hall] | 3.08 ± 0.28 | 3.45 ± 0.46 | 3.25 ± 0.62
SAGGSAGGGSLSKPKKYELVATFTFPGTVEEAKEFLEKLLPEDWKVEIEETPDFLKIKLYKRLDSAGGSAGG [r6_952_TrMRF] | 4.07 ± 0.049 | 4.07 ± 0.13 | 4.06 ± 0.063
SAGGMRLVFVTETPEEAEEIARELAELFPDFELEAEVREEEVLVEVPETGEVKRRPVYVLVIELRPKSAGGS [r16_828_TrMRF] | 4.42 ± 0.059 | 4.29 ± 0.098 | 4.41 ± 0.079
KRVTIMFNFPPGKPLPLSELAGFARNSGGEVKIQIYNPDDGKWQEITFPGGKIDDVEMFPDGWMVMITVKGS [r1_238_TrROS] | 2.83 ± 0.089 | 2.09 ± 0.061 | 2.52 ± 0.15
SAGGSAPSVFPFKAKFKDYDLEIKSITVYENGEVEINAIAYNPDGKKKVELNITLPYSEILDLLKSSAGGSA [r15_56_TrMRF] | 2.68 ± 0.037 | 2.35 ± 0.059 | 2.55 ± 0.094
SAGKKKKITIEIVIKPKTLEELENKIKEIAKKLGLKKIEKIEIVKIEKDKNGKIKKVVIKITLTEEALKSAG [r5_575_TrROS_Hall] | 3.25 ± 0.24 | 1.51 ± 0.12 | 2.61 ± 0.31
SNVHIHVEPDPDGRVKITLMMPPDNPDEFAEEIAENLGYPVKITDIEPFPFKKNGKPREYYMIEIEIRLPSA [r9_431_TrROS] | 2.56 ± 0.2 | 1.15 ± 0.13 | 2.17 ± 0.25
SAGGTKTINIKNMPPNDPERMVRTARHLLKELKQKGPGKTITIHMDNPWAREVAEYLKKEGIPIEVHSAGGS [r16_450_TrROS] | 1.09 ± 0.15 | 0.581 ± 0.17 | 0.947 ± 0.14
SAGGSAGGSAGKTYTFRVRIVDEETGEEKEIEVTAKSEEEAKKAAEELKKKYPNLKVELESAGGSAGGSAGG [r11_233_TrROS_Hall] | 3.24 ± 0.036 | 2.98 ± 0.13 | 3.22 ± 0.14
SKPETVTFPFNIPLKDMPLEDIKEEAKEWLRNFGYKVEKPEITPEMLKLLKDMPPGQEIPITITIKVEPKSA [r9_1163_TrROS] | 1.08 ± 0.18 | 0.301 ± 0.12 | 0.828 ± 0.085
KKKKKKKKKKKKKEKVKVRIRIRLKVKDKETGEWKEIEVEIEIEMSKEEAEEIAKKLAEKYNFEIVEIEIES [r1_488_TrROS_Hall] | 3.46 ± 0.19 | 2.95 ± 0.079 | 3.28 ± 0.21

Sequence | folding stability dG unfold [1] [kcal/mol] | folding stability dG unfold [2] [kcal/mol] | folding stability dG unfold [3] [kcal/mol]
SDIKIENYERNPGNGMYMWTVKLPDDGKKIEIMYPPGGIYISVEHPGKKKMFPFKSWEDMLDQVKDLLKNSA [r9_527_TrROS] | 1.79 ± 0.23 | 1.24 ± 0.045 | 1.36 ± 0.26
SAGGSAGGSAMVVRGEDLTPEALLELLEENPEEVTLETKDHIATVKFNPETGELEITSVDDISAGGSAGGSA [r18_75_TrMRF] | 1.73 ± 0.099 | 1.38 ± 0.12 | 1.6 ± 0.13
MKPLTPDEVKELAKFIANMIRRRMRENGIKDVEIPVKVEPDPNGWYWINVSITFKYNGKPIGRFPIEIWVRS [r1_364_TrROS] | 3.781 ± 0.019 | 3.17 ± 0.045 | 3.57 ± 0.074
SAGGSAGGSAGGGSMVTVPVTTESTTTVPPGAPAVEAAPVDPATATVSTTTSSTSLVASSAGGSAGGSAGGS [r10_82_JUSTAS] | 0.534 ± 0.029 | 1.22 ± 0.081 | 0.862 ± 0.092
SAGGMKSETIPLTTPEGVPFEVTITTENGKVTVTITPLDPSAPEEVVEAVRAAVEARAAAAGKTVTLVSAGG [r13_774_JUSTAS] | 1.37 ± 0.04 | 1.47 ± 0.046 | 1.42 ± 0.07
SAGGSAKIEITIFIPGMSEEEVKKLAEELAEELRKKGLSDEEIKEIKIKVYKVPVYKTEDGKLVKVSAGGSA [r15_684_TrROS_Hall] | 1.82 ± 0.059 | 0.884 ± 0.046 | 1.44 ± 0.089
SFGMIEIENEAFLPDGFRFKVEVWVMVDPDNGNLMIMLDIEIEPIPPPPPPPEPKPVKDKNGDWKPANDMSA [r9_898_TrROS] | 3.79 ± 0.14 | 1.82 ± 0.14 | 3.12 ± 0.18
SAGGSAGGSAGFKVPPGWKIVNTYRSPESGYPTAILRDPGDNKPLIFDFDNGKIMPAKDISAGGSAGGSAGG [r11_268_TrROS] | -0.535 ± 0.69 | 0.291 ± 0.11 | -0.178 ± 0.55
SAGGSAGGSAGGSPNPLLPPVRPKVILKDPKTGTTKTFTTEEEAKKAVESGEYTVLKIESAGGSAGGSAGGS [r10_520_JUSTAS] | 0.353 ± 0.11 | -0.0844 ± 0.066 | 0.217 ± 0.058
SAGGSAGGSAGGSDVKIEVERGPNGYYTVTIELNGKPKIIPFPPGRPPEDAKDEIKDLLSAGGSAGGSAGGS [r4_7_TrROS] | -0.279 ± 0.13 | 0.554 ± 0.058 | 0.335 ± 0.12
SAGGSAGGSAGPLRPRLYRVRFTNPDGSRREFLVPEGATLEEILKRFNIPESGRVELEPVSAGGSAGGSAGG [r11_340_TrMRF] | 2.04 ± 0.07 | 2.3 ± 0.033 | 2.26 ± 0.082
SAGGSAGGGMLNGLLEKLLLAEPVEVDPVTTTVTPSPNGTVTTTPVYSTADDSVLTETQTTPVASAGGSAGG [r6_326_JUSTAS] | -0.574 ± 0.19 | 0.341 ± 0.057 | -0.0634 ± 0.14
SAGGMPPGYRVVLVTKEVETVTFEKKPGNENEYTTTPKIVPREEVVEVTSPEVLAELEAEGYEVTPASAGGS [r8_482_JUSTAS] | -0.154 ± 0.17 | 0.00788 ± 0.031 | -0.0223 ± 0.11
MEITITETENGYRVEVKIEITVIDPKTGEPVPLEIPVEAFVPASDPDPEKAAKEAAEKALEEVLKALPEGLS [r1_414_JUSTAS] | 1.88 ± 0.091 | 2.33 ± 0.21 | 1.99 ± 0.19
SAGGKLPKLPPGQIEIMDFQIEPDPDGRYKMSFMITITAPDNGKKVVVMLEMWMPPDGEMKTGIGIMPSAGG [r13_263_TrROS] | 2.85 ± 0.15 | 1.9 ± 0.14 | 2.65 ± 0.34
SAGGSAGGSAGGVDPTPDGILRVRVVIKDPNGDVFSEKEVEMTPEELEALKKAGYVILESAGGSAGGSAGGS [r10_749_JUSTAS] | 2.022 ± 0.018 | 1.43 ± 0.033 | 1.82 ± 0.054
SMIDIEISTDPNNPNVITVTAKYPDPEKAKEYLEKKLKEEYDVISISYEYEPENPIITFTFTYASPEKPQSA [r9_1120_JUSTAS] | 3.11 ± 0.052 | 2.37 ± 0.078 | 2.79 ± 0.15
SAGGEKTLTVEYNPEDDYLTFTLTLTRPGYDPVTGKPREYKVTLTFTVPLNEATPEHVKLALEIYEKDSAGG [r13_980_TrMRF] | 4.71 ± 0.15 | 2.88 ± 0.13 | 4.28 ± 0.56
SAGGSASTYEPEVYTFTGKNKKIKVIVVKPKDNPTAKIIVYDENGNVLATIEFPAENVEKALKELASAGGSA [r15_940_TrMRF] | 2.12 ± 0.064 | 2.02 ± 0.029 | 2.1 ± 0.083
SAGGKLIIVIEVNGETIEVDLEEAETLEEAIQKVLDEIRERFPEIGTVRIKVFDEKGKLIKEIEIKLKSAGG [r13_257_TrROS_Hall] | 3.6 ± 0.18 | 3.25 ± 0.12 | 3.51 ± 0.17
SAGGSAGGSAGGKPKYKIVEIKYDKETKTVTLKIKLENGETVEITVPPGTSLEDILKALSAGGSAGGSAGGS [r10_984_TrROS_Hall] | 3.9 ± 0.061 | 3.57 ± 0.098 | 3.83 ± 0.055
